{"source": "paper PMC3624760", "key": {"[1]": {"target": "DNA polymerase beta WT (UniProt P06746 1-335)", "assay": "active site titration"}, "[2]": {"target": "DNA polymerase beta D160N (UniProt P06746 1-335, D160N)", "assay": "active site titration"}}, "data": [{"binder": "1 bp-gap (dsDNA) DNA 1: CGCGCCAATCGAGCCATGTCGT DNA 2: GTCAACGACCCACCATTCAAGA DNA 3: TCTTGAATGGTGGGTCGTTGACGACGACATGGCTCGATTGGCGCG", "values": [{"measurement": "Kd", "setting": "[1]", "result": 16, "unit": "nM"}, {"measurement": "Kd", "setting": "[2]", "result": 21, "unit": "nM"}]}]}
